Earlier results as cited in publication PMC8165686.

Biological target: Spike RBD (SARS-CoV-2) (UniProt P0DTC2)

For “ACE2 23-mer peptide 21-43 (from UniProt Q9BYF1)”, the Kd is listed as 47 nM.
